Results on 34 molecules are retold here after US20140179896A1 (published 2014).

In the assay the target is T1, human vascular endothelial growth factor receptor-2 Fc chimera (KDR-Fc) (human, UniProt P35968 20-764).
T1 construct: range 1-764; also called human VEGFR-2; VEGF-R2-Fc; not shown: human IgG1 Fc
The assay can be described thus: radioactive equilibrium binding, 1 nM KDR-Fc. As to the method: To prepare ³⁵S-labeled binding proteins for analysis, mRNA was prepared as described above for RNA-protein fusion production but the linker ligation step was omitted. The mRNA was expressed using rabbit reticulocyte lysate translation kit (Ambion) in the presence of ³⁵S-labeled Met at 30° C. for 1 hour. Expressed protein was purified on M2-agarose Flag beads (Sigma) as described above. This procedure produced the encoded protein without the nucleic acid tail. In a direct binding assay, VEGF-R2-Fc fusions in concentrations ranging from 0 to 200 nM were added to a constant concentration of the purified protein (0.2 or 0.5 nM) and incubated at 30° C. for 1 hour in buffer B. The receptor-binder complexes were captured using Protein A magnetic beads for another 10 minutes at room temperature using a Kingfisher™ The beads were washed with six reaction volumes of buffer B. The protein was eluted from the beads with 100 μL of 0.1 M KOH. […] of the reaction mixture and elution were dried onto a LumaPlate-96 (Packard) and the amount of ³⁵S on the plate was measured using a TopCount NXT instrument (Packard). The amount of fibronectin-based scaffold protein bound to the target was estimated as a percent of radioactivity eluted from Protein A magnetic beads compare to radioactivity in the reaction mixture. Nonspecific binding of fibronectin-based scaffold proteins to the beads was determined by measuring binding in the absence of KDR-Fc and represented less than 1-2% of the input. Specific binding was obtained through subtraction of nonspecific binding from total binding. Data was analyzed using the GraphPad Prizm software (GraphPad Software, Inc, San Diego, Calif.), fitted using a one site, non-linear binding equation.

T1 sequence (P35968 20-764 limits assumed, change not shown, form in doubt): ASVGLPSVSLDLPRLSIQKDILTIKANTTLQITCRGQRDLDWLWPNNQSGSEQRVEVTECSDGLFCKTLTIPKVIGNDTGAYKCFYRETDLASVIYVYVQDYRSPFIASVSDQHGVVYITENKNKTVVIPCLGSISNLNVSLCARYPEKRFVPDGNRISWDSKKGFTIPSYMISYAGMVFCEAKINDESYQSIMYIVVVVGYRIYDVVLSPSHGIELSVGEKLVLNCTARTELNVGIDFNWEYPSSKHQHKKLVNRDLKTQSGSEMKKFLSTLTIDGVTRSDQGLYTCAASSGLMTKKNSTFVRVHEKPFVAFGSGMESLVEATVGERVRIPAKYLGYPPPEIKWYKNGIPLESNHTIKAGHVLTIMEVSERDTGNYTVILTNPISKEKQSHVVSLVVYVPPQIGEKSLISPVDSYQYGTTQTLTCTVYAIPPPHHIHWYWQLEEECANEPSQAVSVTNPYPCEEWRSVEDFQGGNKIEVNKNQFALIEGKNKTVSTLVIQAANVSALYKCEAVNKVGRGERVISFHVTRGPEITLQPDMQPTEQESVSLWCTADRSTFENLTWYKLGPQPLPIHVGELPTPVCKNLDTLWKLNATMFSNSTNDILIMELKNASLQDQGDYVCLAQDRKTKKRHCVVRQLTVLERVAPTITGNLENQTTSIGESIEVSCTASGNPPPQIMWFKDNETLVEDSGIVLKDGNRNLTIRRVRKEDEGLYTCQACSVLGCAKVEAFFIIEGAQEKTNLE

B1: 3′A8 PR4 (designed binder)
chain: EVVAATPTSLLISWRHPHFPTRYYRITYGETGGNSPVQEFTVPLQPPTATISGLKPGVDYTITGYAVTVAWDDHELLTPISINYRT
notes: Del 1-8
Turning to B1, the “Binding to 1 nM KDR, %” value worked out at 27%.

B2: 3′C8 PR4 (designed binder)
chain: EVVAATPTSLLISWRHPHFPTRYYRITYGETGGNSPVQEFTVPLQPPTATISGLKPGVDYTITGYAVTEGLNDHELMIPISINYRT
notes: Del 1-8
With B2, the “Binding to 1 nM KDR, %” value came to 19%.

B3: 3′B10 PR4 (designed binder)
chain: EVVAATPTSLLISWRHPHFPTRYYRITYGETGGNSPVQEFTVPLQPPTATISGLKPGVDYTITGYAVTLAQTGRELLTPISINYRT
notes: Del 1-8
Consider B3, for which the “Binding to 1 nM KDR, %” value was 21%.

B4: 3′E5 PR4 (designed binder)
chain: EVVAATPTSLLISWRHPHFPTRYYRITYGETGGNSPVQEFTVPLQPPTATISGLKPGVDYTITGYAVTVAWDGRELFTPISINYRT
notes: Del 1-8
Regarding B4, the “Binding to 1 nM KDR, %” value stood at 23%.

B5: 3′F2 PR4 (designed binder)
chain: EVVAATPTSLLISWRHPHFPTRYYRITYGETGGNSPVQEFTVPLQPPTATISGLKPGVDYTITGYAVTLGKNDHELLTPISINYRT
notes: Del 1-8
Regarding B5, the “Binding to 1 nM KDR, %” value came out at 29%.

B6: 3′G3 PR4 (designed binder)
chain: EVVAATPTSLLISWRHPHFPTRYYRITYGETGGNSPVQEFTVPLQPPTATISGLKPGVDYTITGYAVTFDQSDHELLTPISINYRT
notes: Del 1-8
Turning to B6, the “Binding to 1 nM KDR, %” value came out at 31%.

B7: 3′B4 PR4 (designed binder)
chain: EVVAATPTSLLISWRHPHFPTRYYRITYGETGGNSPVQEFTVPLQPPTATISGLKPGVDYTITGYAVTVAWNGHELMTPISINYRT
notes: Del 1-8
Take B7: the “Binding to 1 nM KDR, %” value worked out at 38%.

B8: 3′C12 PR4 (designed binder)
chain: EVVAATPTSLLISWRHPHFPTRYYRITYGETGGNSPVQEFTVPLQPPTATISGLKPGVDYTITGYAVTIGPNNHELLTPISINYRT
notes: Del 1-8
As to B8, the “Binding to 1 nM KDR, %” value worked out at 33%.

B9: 3′F12 PR4 (designed binder)
chain: EVVAATPTSLLISWRHPHFPTRYYRITYGETGGNSPVQEFTVPLQPPTATISGLKPGVDYTITGYAVTLSQTDHELLTPISINYRT
notes: Del 1-8
For the molecule B9, the “Binding to 1 nM KDR, %” value was 17%.

B10: 3′G7 PR4 (designed binder)
chain: EVVAATPTSLLISWRHPHFPTRYYRITYGETGGNSPVQEFTVPLQPPTATISGLKPGVDYTITGYAVTEGQNDQLLFIPISINYRT
notes: Del 1-8
In the case of B10, the “Binding to 1 nM KDR, %” value is 19%.

B11: 3′D9 PR4 (designed binder)
chain: EVVAATPTSLLISWRHPHFPTRYYRITYGETGGNSPVQEFTVPLQPPTATISGLKPGVDYTITGYAVTGYYNDRELLTPISINYRT
notes: Del 1-8
On to B11, for which the “Binding to 1 nM KDR, %” value is 30%.

B12: 3′F9 PR4 (designed binder)
chain: EVVAATPTSLLISWRHPHFPTRYYRITYGETGGNSPVQEFTVPLQPPTATISGLKPGVDYTITGYAVTLGPNDRELMTPISINYRT
notes: Del 1-8
Regarding B12, the “Binding to 1 nM KDR, %” value came out at 18%.

B13: 3′B12 PR4 (designed binder)
chain: EVVAATPTSLLISWRHPHFPTRYYRITYGETGGNSPVQEFTVPLQPPTATISGLKPGVDYTITGYAVTVAHENRELLTPISINYRT
notes: Del 1-8
As for B13, the “Binding to 1 nM KDR, %” value is 28%.

B14: 3′A9 PR4 (designed binder)
chain: EVVAATPTSLLISWRHPHFPTRYYRITYGETGGNSPVQEFTVPLQPPTATISGLKPGVDYTITGYAVTLAHNDRELLTPISINYRT
notes: Del 1-8
With B14, the “Binding to 1 nM KDR, %” value worked out at 25%.

B15: 3′G2 PR4 (designed binder)
chain: EVVAATPTSLLISWRHPHFPTRYYRITYGETGGNSPVQEFTVPLQPPTATISGLKPGVDYTITGYAVTLAQNGHELITPISINYRT
notes: Del 1-8
For B15, the “Binding to 1 nM KDR, %” value worked out at 15%.

B16: 3′F6 PR4 (designed binder)
chain: EVVAATPTSLLISWRHPHFPTRYYRITYGETGGNSPVQEFTVPLQPPTATISGLKPGVDYTITGYAVTIEQSGLQLMTPISINYRT
notes: Del 1-8
As to B16, the “Binding to 1 nM KDR, %” value came to 24%.

B17: 3′E11 PR4 (designed binder)
chain: EVVAATPTSLLISWRHPHFPTRYYRITYGETGGNSPVQEFTVPLQPPTATISGLKPGVDYTITGYAVTVGPHDRELLTPISINYRT
notes: Del 1-8
On to B17, for which the “Binding to 1 nM KDR, %” value came out at 17%.

B18: 3′G1 PR4 (designed binder)
chain: EVVAATPTSLLISWRHPHFPTRYYRITYGETGGNSPVQEFTVPLQPPTATISGLKPGVDYTITGYAVTLALNGHELFTPISINYRT
notes: Del 1-8
For the molecule B18, the “Binding to 1 nM KDR, %” value was found to be 19%.

B19: 3′D8 PR4 (designed binder)
chain: EVVAATPTSLLISWRHPHFPTRYYRITYGETGGNSPVQEFTVPLQPPTATISGLKPGVDYTITGYAVTAGPNDHQLFTPISINYRT
notes: Del 1-8
For B19, the “Binding to 1 nM KDR, %” value worked out at 27%.

B20: 3′D2 PR4 (designed binder)
chain: EVVAATPTSLLISWRHPHFPTRYYRITYGETGGNSPVQEFTVPLQPPTATISGLKPGVDYTITGYAVTVESNGHALFVPISINYRT
notes: Del 1-8
Consider B20, for which the “Binding to 1 nM KDR, %” value was found to be 19%.

B21: 3′C3 PR4 (designed binder)
chain: EVVAATPTSLLISWRHPHFPTRYYRITYGETGGNSPVQEFTVPLQPPTATISGLKPGVDYTITGYAVTMAQNGHALFTPISINYRT
notes: Del 1-8
Regarding B21, the “Binding to 1 nM KDR, %” value amounted to 32%.

B22: 3′F1 PR4 (designed binder)
chain: EVVAATPTSLLISWRHPHFPTRYYRITYGETGGNSPVQEFTVPLQPPTATISGLKPGVDYTITGYAVTVAQDGHFLYTPISINYRT
notes: Del 1-8
Regarding B22, the “Binding to 1 nM KDR, %” value stood at 31%.

B23: 3′B1 PR4 (designed binder)
chain: EVVAATPTSLLISWRHPHFPTRYYRITYGETGGNSPVQEFTVPLQPPTATISGLKPGVDYTITGYAVTEARNGRELLTPISINYRT
notes: Del 1-8
Consider B23, for which the “Binding to 1 nM KDR, %” value was found to be 25%.

B24: 3′C5 PR4 (designed binder)
chain: EVVAATPTSLLISWRHPHFPTRYYRITYGETGGNSPVQEFTVPLQPPTATISGLKPGVDYTITGYAVTDAMYGRELMTPISINYRT
notes: Del 1-8
Turning to B24, the “Binding to 1 nM KDR, %” value worked out at 27%.

B25: 3′B8 PR4 (designed binder)
chain: EVVAATPTSLLISWRHPHFPTRYYRITYGETGGNSPVQEFTVPLQPPTATISGLKPGVDYTITGYAVTLGYHDHALFTPISINYRT
notes: Del 1-8
Turning to B25, the “Binding to 1 nM KDR, %” value was 14%.

B26: 3′G10 PR4 (designed binder)
chain: EVVAATPTSLLISWRHPHFPTRYYRITYGETGGNSPVQEFTVPLQPPTATISGLKPGVDYTITGYAVTLTHNDHELLTPISINYRT
notes: Del 1-8
Regarding B26, the “Binding to 1 nM KDR, %” value amounted to 30%.

B27: 3′C6 PR4 (designed binder)
chain: EVVAATPTSLLISWRHPHFPTRYYRITYGETGGNSPVQEFTVPLQPPTATISGLKPGVDYTITGYAVTMGPNDRELLTPISINYRT
notes: Del 1-8
On to B27, for which the “Binding to 1 nM KDR, %” value turned out to be 37%.

B28: 3′D3 PR4 (designed binder)
chain: EVVAATPTSLLISWRHPHFPTRYYRITYGETGGNSPVQEFTVPLQPPTATISGLKPGVDYTITGYAVTPGPGDRELITPISINYRT
notes: Del 1-8
As to B28, the “Binding to 1 nM KDR, %” value came out at 42%.

B29: 3′B11 PR4 (designed binder)
chain: EVVAATPTSLLISWRHPHFPTRYYRITYGETGGNSPVQEFTVPLQPPTATISGLKPGVDYTITGYAVTETWNDHEIRTPISINYRT
notes: Del 1-8
For the molecule B29, the “Binding to 1 nM KDR, %” value was determined as 23%.

B30: 3′B2 PR4 (designed binder)
chain: EVVAATPTSLLISWRHPHFPTRYYRITYGETGGNSPVQEFTVPLQPPTATISGLKPGVDYTITGYAVTVGRNDRELLTPISINYRT
notes: Del 1-8
With B30, the “Binding to 1 nM KDR, %” value stood at 29%.

B31: 3′E9 PR4 (designed binder)
chain: EVVAATPTSLLISWRHPHFPTRYYRITYGETGGNSPVQEFTVPLQPPTATISGLKPGVDYTITGYAVTVEQDGHVLYIPISINYRT
notes: Del 1-8
Consider B31, for which the “Binding to 1 nM KDR, %” value was found to be 44%.

B32: 3′E3 PR4 (designed binder)
chain: EVVAATPTSLLISWRHPHFPTRYYRITYGETGGNSPVQEFTVPLQPPTATISGLKPGVDYTITGYAVTMAQYGRELLTPISINYRT
notes: Del 1-8
In the case of B32, the “Binding to 1 nM KDR, %” value turned out to be 41%.

B33: 3′E1 PR4 (designed binder)
chain: EVVAATPTSLLISWRHPHFPTRYYRITYGETGGNSPVQEFTVPLQPPTATISGLKPGVDYTITGYAVTVAPNGHELFTPISINYRT
notes: Del 1-8
Regarding B33, the “Binding to 1 nM KDR, %” value amounted to 32%.

B34: 3′F3 PR4 (designed binder)
chain: EVVAATPTSLLISWRHPHFPTRYYRITYGETGGNSPVQEFTVPLQPPTATISGLKPGVDYTITGYAVTLGHNDRELLTPISINYRT
notes: Del 1-8
With B34, the “Binding to 1 nM KDR, %” value is 37%.
